In the DeepSol protein solubility set:

Assay: soluble on expression in E. coli; label from the status in PepcDB or PDB records

Sequence	soluble on expression in E. coli
MASTPRIVIIGAGIVGTNLADELVTRGWNNITVLDQGPLNMPGGSTSHAPGLVFQTNPSKTMASFAKYTVEKLLSLTEDGVSCFNQVGGLEVATTETRLADLKRKLGYAAAWGIEGRLLSPAECQELYPLLDGENILGGLHVPSDGLASAARAVQLLIKRTESAGVTYRGSTTVTGIEQSGGRVTGVQTADGVIPADIVVSCAGFWGAKIGAMIGMAVPLLPLAHQYVKTTPVPAQQGRNDQPNGARLPILRHQDQDLYYREHGDRYGIGSYAHRPMPVDVDTLGAYAPETVSEHHMPSRLDFTLEDFLPAWEATKQLLPALADSEIEDGFNGIFSFTPDGGPLLGESKELDGFYVAEAVWVTHSAGVAKAMAELLTTGRSETDLGECDITRFEDVQLTPEYVSETSQQNFVEIYDVLHPLQPRLSPRNLRVSPFHARHKELGAFFLEAGGWERPYWFEANAALLKEMPAEWLPPARDAWSGMFSSPIAAAEAWKTRTAVAMYDMTPLKRLEVSGPGALKLLQELTTADLAKKPGAVTYTLLLDHAGGVRSDITVARLSEDTFQLGANGNIDTAYFERAARHQTQSGSATDWVQVRDTTGGTCCIGLWGPLARDLVSKVSDDDFTNDGLKYFRAKNVVIGGIPVTAMRLSYVGELGWELYTSADNGQRLWDALWQAGQPFGVIAAGRAAFSSLRLEKGYRSWGTDMTTEHDPFEAGLGFAVKMAKESFIGKGALEGRTEEASARRLRCLTIDDGRSIVLGKEPVFYKEQAVGYVTSAAYGYTVAKPIAYSYLPGTVSVGDSVDIEYFGRRITATVTEDPLYDPKMTRLRG	soluble
MDILVLRVDVPKEGFARKLGAHETVFAADDGAVGKVQQLVEVLLRHERDFDEADGCRLKNIAVVLQGILRNNAALFEAVDDLRPRQQQCHRAACLSPHFQPLCPNIAPIAEKQPFGGVFFGQHQPLSQGFSIETDGFAVITFAYQPAAFFAETHKPKIFLNTLLRRRHQMQPFIAFLRAQIFPIQPKRLVSADNVQHIFGQVAGKSFDDDIGNRRGINICRIGMPSADMNILMNAGNIGQIRAKRTQGGHIVRPQMHLPTEFAVQNTGEPPRNADVAEIVDDLAKNPTDKRRSIHRNNGNGLKRAKIVEQIHNQQNNRNKQQHSLTFQIKLLFQMMLDGVEKDEFKQKRRFAGKDDAVDQMLEFVFGRIGGENGKRRQRDEADGKPADKQVSGHCKAFKKAKRHYRPKRTPCLTDAPEMPSEALPQENAAPPNL	not soluble
MKKWAVWLCSLLLLLPLSACTNDGGQSEKPLKKVRLAEVTHSIFYAPQYVALAKGFFKEEGLDVELTTTWGGDKTMTTLLSGGADIALVGSETSIYVYSQGTDDPVINFAQLTQTDGTFLVSRKKIGHFTWEMLKGSTFLGQRKGGMPQMVGEFVLKKHGIDPHQDLKLIQNVDFANIANAFASGTGDFVQLFEPTASLFEQEGKGYIVASFGTESGRVPYTSYMAKRSYMNENKDVIEKFTRAIYKAQQWVESHSAAEIAKAIQPYFKDTDSAIIEKVVERYKSQGTYATDPILDEEEWNNLQTIMAEAGELPKRIDLNTLVDSSFAKNAMND	not soluble
MSLHWLNRNTRKGSQKNIAAHYDLGNTLFEQFLDPTMMYSAAQFLSNDDTLEQAQLNKLERICQKLALKPTDHLLEIGTGWGSMAIYAAQQYGCRVTTTTLSREQFAYTEQRLIKLGLQDRVTLLLTDYRDLTGEYDKLVSIEMIEAVGHRFLPTYFKQCASLLKSNGMMLLQAITIREQRYAQAKRNVDFIQRYIFPGGALPSVAKMLDIVGSDTDMNLLHMEDFGLHYARTLRLWHDNFKHAHGTLTELGYDDYFLRLWEFYLCYCEGGFLERTIGTAQLLLAKPDALREGHHHHHH	not soluble
MEKKIGFIGCGNMGKAILGGLIASGQVLPGQIWVYTPSPDKVAALHDQYGINAAQSAQEVAQVADIVFGAVKPGIMVKVLSEISSSLNKDSLVVSIAAGVTLDQLARALGHDRKIIRAMPNTPSLVNAGMTSVTPNALVTPEDTADVLNIFRCFGGAEVIAEPMIHPVVGVSGSSPAYVFMFIEAMADAAVLGGMPRAQAYKFAAQAVMGSAKMVLETGKHPGELKDMVCSPGGTTIEAVRVLEERGFRAAVIEAMTKCMEKSEALSKSLEHHHHHH	soluble
MQENPTVWLFDLDNTLHDADAGIFHLINRAMTRYMARRLKLSESAASDLRQDYWHRYGATLAGLQIHHPEIDIAEFLRESHPIDAILTRLHGMADTENTLCRLNGRKAVFSNGPSFYVRAVAGALGLENCFDALFGTDDFGLLYKPNPQAYLNVCRLLDVPPECCIMVDDSADNLHQAKALGMKTVRFGAKSHAPPFIDASVSDMAQLARYAETLSERRQNHYNTRTPRKYERMLCVKPSLS	not soluble
MGSDKIHHHHHHMLSLKSEVLARHLPLFNGKSILLFGNVRDRFADQIRSISSHVAIFSHYFDYARHYNDVEFGLDCTTPANLGVFYWTKNKQECHYQLLQWLSQTAIGQQMLIIGENRAGVRSVEKLLSPFGQIAKIDSARRCGLYHFELQTIPQFDCQKFWKSYRLADLTVLSLPAAFSSTELDAGSQLLLSSFTNQDRLTGNVLDLGCGAGVIGAYLKQRFPAISLTMSDIHSMAIHSAQATLAKNKLTGTVIASDVFSHINDRFDLIVSNPPFHDDIDTAYHTVESLIMQAKNHLNYGGELRIVANAFLPYPDLLDKAFGSHQVVTKSNKFKVYSARV	not soluble
KELKDSYVEYTLLYDMIANRIGIDEVVAENGTLRLMKNQVWAYDSLPHMLIAGGTGGGKTYFLLTIIEALLKSDAELFILDPKNADLADLGTVMPHVYSQKEEISACVEDFYERMIARSKAMKEMPNYKPGENYAYLGLPPNFLIFDEYVAYMGANRFPTS	not soluble
MSFSADALEGGLSSLKLAADKYRSILNDEKTGNIRWRYGGPPIFDTVNKLFEEERTHVQWRYDNPPDFNSVNQLFEEGQTKVWPEGSLEETVQNAIKSWEMEFSHKIRLQDFKTINPEKFKLFVNGREGLSAEETLRLGSYNALLKNSLPEEFQYYKPEEESFESSHDAFRSALPRGFAWEILSVYSGPPVIAFKFRHWGYFEGTFKGHAPTGEMVQFLGLGVLKVDESLRAEEIEIYYDPGELFGGLLKGPPISETKTTDSGDNTAEKQSCPFTH	soluble
MGSDKIHHHHHHMREISMDWNDLRFFLEVARTSSLTKTAIKLKVSQSTVSRRIGALESSLKTRLFLHHQTGYFLTDVGKEVLKYAEDVEGKVGTLEKKISGRDLAPAGIVRLATAVTLANHLIIPQLPRFMACYPEIILELVTGVNTVSVVRNDADIALRLVRPEQNSLKIRKVGVVASAVYGSETYVREHPAPEDNPIIGRSFITWDKSFSHLPSARWLNEHFPDMTSTLALTSLVTQIAAANAGLGLAVLPCFIAAQNSDLVEVIHTQRVFSEDLWLVSHTDLIASSRIRVVADFLMEIIAEAHLA	not soluble
VRSSSRTPSDMPVAHVVANPQAEGQLQWKNAGANALLANGVELRDNQLVVPSEGLYLIYSQVLFSGQGCPSTHVLLTHTISRIAVSYQTPVNLLSAIRSPCQRETPEGAEANPWYEPIYLGGVFQLEPGDRLSAEINRPDYLDFASTGQVYFGIIAL	soluble
MGSDKIHHHHHHMKTAALFVSKEFEEEAIALVEGANYKVTSIYKLPKSPNVKFYIQYDKLQQIKNDEEISTLIIFEQLKPRHFINIRRELKGKEVLDKILLLLEIFALHAGSKEAKMQIELARLKYELPIIKETYTKSKIGEQQGPLGAGTYGVESTIKFYKRRINKLMKELESIKIFKEKSIESNKRNNIPSIGIVGYTNSGKTSLFNSLTGLTQKVDTKLFTTMSPKRYAIPINNRKIMLVDTVGFIRGIPPQIVDAFFVTLSEAKYSDALILVIDSTFSENLLIETLQSSFEILREIGVSGKPILVTLNKIDKINGDLYKKLDLVEKLSKELYSPIFDVIPISALKRTNLELLRDKIYQLATQLS	not soluble
MSLEEFVKTGKTVCILINKQGRIYYSNIGKDVAEKCLEDIHIFDHLPADGTVSYNVGYYTVTADTVDLDEAHYYLILIQPQGNLYKYAYRDSFTGLYNRNYWEQLISGKMHRPIPKRFTLIVIDVDNLKSLNDNRGHLAGDKAIRIVGKSIRESIRKQDIAVRYGGDEFFILLANTKKAIVEKVINRVKENIRKRGKEENIHIEISVGMACSNSINKLEKVITMADYNMYKEKREKKVQVKHIGEGHHHHHH	not soluble
ESVLTQPPSVSGAPGQRVTISCTGSSSNIGAGYDVHWYQQLPGTAPKLLISGNSNRPSGVPDRFSGSKSGTSASLAITGLQAEDEADYYCQSYDSSLSGSVFGGGTKLTVLGQPKAAPSVTLFPPSSEELQANKATLVCLISDFYPGAVTVAWKADSSPVKAGVETTTPSKQSNNKYAASSYLSLTPEQWKSHRSYSCQVTHEGSTVEKTVAPTECS	soluble
MAHHHHHHMRVSPNSLSEAASQLEQDRERDFFRLLYIVDRARRFLSIPVGNVDWRLTCDCLDDMNHRYADTGFLLGFTGGYVLRNRAGRTLLSRFWFSMYLGLVFYDWELRRTTRAPALEYWNSICTVDTEVGRIARVLHTPARFYEAAPMSTAFSGGPPPLPRGSSSSPSPAPHGASVRDWLWRYVSDTMSSVLLMTLCSHLFEGSSWRHRTSDNVEVTALVINSRFFHWKVFESCQVQRNETTEYNISLKWFPSFAASDSLRRSFQCRELILERSTLGGRLWYRTHFSLLRCLGLDSQ	not soluble
MSLQTWIWYPGDYEIWLGNRMNNRRTERGAFFPPFWKTDSHYVVVEFSKKLDLAEPEEIFIAAEGKYNVKLDGKLQFGMPSTLKLPAGKHSLNIKVWNQSTPPTIYVKGKTVNTDKTWKVTYEDKEWIDESGKASDTSATVYMDAGCWNFDGATQLPSKFSLARKPMKAVSSTPRKEGVLYDFGKETFGYITLKEVKGKGTIHIYYGESPEEALDTEYCETLDKLLAEPGQITDLAIRNTRKLYDEYTLDNSKAFRYVYVTCDPGVTIQDVSMQYEYLPEEYRGSFKCNDEELNRIWEVGAYTMHLTTREFFIDGIKRDRWVWSGDAIQSYLMNYYLFFDNETVKRTIWLLRGKDPVTSHSNTIMDYTFYWFLSIYDYYMYSGDKDFVTQLYPRMQSMMDYVLGRTNANGMVEGMTGDWVFVDWADGYLDKKGELSFEQVLFCKSLETMALCAGLAGNTADKTKYEKLASALRSKLEPAFWNEQKQAMVHNRVQGKQSESVTRYANMFSVFFNYLNADKQQTIKHSVLQNDSILKITTPYMRFYELEALCALGEQESVMKEMKAYWGGMLKEGATSFWEKYNPEETGTRHLAMYGRPYGKSLCHAWGASPIYLLGKYYLGVKPTKPGYEEYSVTPCLGGLKWMEGTVPTPYGNIHIYMDKKEIRIKSDGGKGVLNIPTRKGMKAMTIEPGEEQVFKYEGHHHHHH	soluble
MGSDKIHHHHHHMKNIIGILGVFILAISCSGGKKESADAGLELTEDSVVYLLADNVTLGIKALFPFIDKDGHEYLTFQNQLEPEICVYDLQSGEFVKSIFFDREGANGVGMFGGYHIIDFDEIYLPSLQQSKVFVMEESGKKKREIITEKTDDGIPLLPFGAITFAYRPIYFNNGKMYIPQTVNMRLGNKVMEKSPVYVVVDTVKNVLSPFSIKFPPIMSSDDVTKPSLGNELSYSCCLNDKDQFVFSFFFDEDIYVVSLQDGEMKKIKVKSRYIDKPAIKENPPQDFDGAMKASSEIPCYGNLIYDKYRKVYYRFVYLKADLDGEKNYLNIWQYGRKSFSIMILNEDFDVIGETRFPDFTYISTLHYIGKDGLYLSDSHYKNPSFDENKLRFRRFKLVHYNKK	not soluble
